Target: CK2α with para-azidophenylalanine at Tyr239 coupled with DBCO-Sulfo-Cy5 (Homo sapiens) (UniProt P68400)
Assay: MST; 0.1526 to 5,000 nM GST cleaved CK2β titrated to 30 nM Cy5-labelled CK2α; 50 mM Tris-HCl (pH 8), 500 mM NaCl, 500 μM CaCl2, 0.05% Tween 20, 0.5% (v/v) DMSO; 25 °C; Monolith NT.115

Question: With “casein kinase II subunit beta (CK2β) NP_001311.3; p.Asp32His, GST cleaved (from UniProt P67870 1-215) (natural protein)” as the substance, how does the Kd read?
Answer: Its Kd is 15.8 nM.

Question: For “casein kinase II subunit beta (CK2β), wild type, GST cleaved (from UniProt P67870 1-215) (natural protein)”, which Kd is on record?
Answer: Its Kd is 12.9 nM.

Reference: publication PMC9092267
